The chains are these.
T1: Recombinant Human B7-H3 Fc chimera Protein (Rndsystem, Cat #1027-B3-100) (human, UniProt Q5ZPR3 29-245)
T1 chain: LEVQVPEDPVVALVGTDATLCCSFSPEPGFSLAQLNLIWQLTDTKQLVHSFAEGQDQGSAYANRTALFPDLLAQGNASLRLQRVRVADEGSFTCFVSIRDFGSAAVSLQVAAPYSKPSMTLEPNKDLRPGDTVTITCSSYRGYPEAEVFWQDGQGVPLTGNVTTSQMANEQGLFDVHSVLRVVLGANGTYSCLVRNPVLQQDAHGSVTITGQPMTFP

B1: #3 antibody (antibody, V domains shown)
VH: EVQLLESGGGLVQPGGSLRLSCAASGFTFSTYYMTWVRQAPGKGLEWVSIINPRGGSTSYAEKFQGRFTISRDNSKNTLYLQMNSLRAEDTAVYYCARWNLGMDVWGQGTLVTVSS
VL: EIVLTQSPGTLSLSPGERATLSCRVSQSISSYLNWYQQKPGQAPRLLIYDASHRATGIPDRFSGSGSGTDFTLTISRLEPEDFAVYYCQQYYAPSVTFGQGTKVEIK
B2: #8 antibody (antibody, V domains shown)
VH: EVQLLESGGGLVQPGSSLRLSCAASGFTFSSYWISWVRQAPGKGLEWVSEISPSGNTNYNPSLKSRFTISRDNSKNTLYLQMNSLRAEDTAVYYCAREVGDLLDYWGQGTLVTVSS
VL: QSVLTQPPSASGTPGQRVTISCSGSNIGNNYVSWYQQLPGTAPKLLIYQDSKRPSGVPDRFSGSKSGTSASLAISGLRSEDEADYYCLVWDRSSDHFVFGGGTKLTVL
B3: #2 antibody (antibody, V domains shown)
VH: EVQLLESGGGLVQPGGSLRLSCAASGFTFSAYYMIWVRQAPGKGLEWVSITNPSGGVTSYAQKFQGRFTISRDNSKNTLYLQMNSLRAEDTAVYYCARVGGRGFDIWGQGTLVTVSS
VL: EIVLTQSPGTLSLSPGERATLSCHASQGISNYVAWYQQKPGQAPRLLIYDASNRATGIPDRFSGSGSGTDFTLTISHLEPEDFAVYYCQQSYSTLLTFGQGTKVEIK
B4: #4 antibody (antibody, V domains shown)
VH: EVQLLESGGGLVQPGGSLRLSCAASGFTFSSYGMHWVRQAPGKGLEWVSAISGSGTSIYYANSVKSRFTISRDNSKNTLYLQMNSLRAEDTAVYYCARGAGWFDYWGQGTLVTVSS
VL: QSVLTQPPSASGTPGQRVTISCSGSTSNIGSNTVNWYQQLPGTAPKLLIYGKNIRPNGVPDRFSGSKSGTSASLAISGLHSEDEADYYCQSYDSSLSGWVFGGGTKLTVL
B5: #7 antibody (antibody, V domains shown)
VH: EVQLLESGGGLVQPGGSLRLSCAASGFTFSNFWIGWVRQAPGKGLEWVSWINPPGSITSYADSVKGRFTISRDNSKDTLYLQMNSLRAEDTAVYYCAREVGDVLDYWGQGTLVTVSS
VL: QSVLTQPPSASGTPGQRVTISCTGTSSDIGRYNYVSWYQQLPGTAPKLLIYRNTQRPSGVPDRFSGSKSGTSASLAISGLRSEDEADYYCGTWDSSLNAYVFGGGTKLTVL
B6: #1 antibody (antibody, V domains shown)
VH: EVQLLESGGGLVQPGGSLRLSCAASGFTFSSYAMSWVRQAPGKGLEWVSTITGSGGSTYYADSVKGRFTISRDNSKNTLYLQMNSLRAEDTAVYYCARYKSGAFDIWGQGTLVTVSS
VL: EIVLTQSPGTLSLSPGERATLSCRASQGIGNYLGWYQQKPGQAPRLLIYTASSLQSGIPDRFSGSGSGTDFTLTISRLEPEDFAVYYCQQGYSTPSWTFGQGTKVEIK
B7: #5 antibody (antibody, V domains shown)
VH: EVQLLESGGGLVQPGGSLRLSCAASGFTFSTYAMSWVRQAPGKGLEWVSAISGSGGSTLYADSVKGRFTISRDNSKNTLYLQMNSLRAEDTAVYYCARGGSATWAFDLWGQGTLVTVSS
VL: QSVLTQPPSASGTPGQRVTISCSGSSSNIGSNYVYWYQQLPGTAPKLLIYRNNQRPSGVPDRFSGSKSGTSASLAISGLRSEDEADYYCGTWDSSLSGVVFGGGTKLTVL
B8: #6 antibody (antibody, V domains shown)
VH: EVQLLESGGGLVQPGGSLRLSCAASGFTFSTYAISWVRQAPGKGLEWVSSIYYSGYTHYNPSLESRFTISRDNSKNTLYLQMNSLRAEDTAVYYCARGYSGWMDVWGQGTLVTVSS
VL: QSVLTQPPSASGTPGQRVTISCGGNNIGSKSVHWYQQLPGTAPKLLIYDNNKRPSGVPNRFSGSKSGTSASLAISGLRSEDEADYYCAAWDDSLNVPVFGGGTKLTVL
B9: #9 antibody (antibody, V domains shown)
VH: EVQLLESGGGLVQPGGSLRLSCAASGFTFSSYAMNWVRQAPGKGLEWVSTISGSGGQTYYADSVKGRFTISRDNSKNTLYLQMNSLRAEDTAVYYCARWRSIWAFDYWGQGTLVTVSS
VL: B8 VL with G23S, G24D, N59D, A88G, A89T, N95S, V96G

Positions count from the first letter of the chain named.

EC50 data for nine molecules are collected here from patent publication US20240158505A1 (published 2024).

B7-H3 expressed on the cell membrane (MCF-7, RKO and RKO/B7H3 cell lines), sequence (Q5ZPR3 29-534): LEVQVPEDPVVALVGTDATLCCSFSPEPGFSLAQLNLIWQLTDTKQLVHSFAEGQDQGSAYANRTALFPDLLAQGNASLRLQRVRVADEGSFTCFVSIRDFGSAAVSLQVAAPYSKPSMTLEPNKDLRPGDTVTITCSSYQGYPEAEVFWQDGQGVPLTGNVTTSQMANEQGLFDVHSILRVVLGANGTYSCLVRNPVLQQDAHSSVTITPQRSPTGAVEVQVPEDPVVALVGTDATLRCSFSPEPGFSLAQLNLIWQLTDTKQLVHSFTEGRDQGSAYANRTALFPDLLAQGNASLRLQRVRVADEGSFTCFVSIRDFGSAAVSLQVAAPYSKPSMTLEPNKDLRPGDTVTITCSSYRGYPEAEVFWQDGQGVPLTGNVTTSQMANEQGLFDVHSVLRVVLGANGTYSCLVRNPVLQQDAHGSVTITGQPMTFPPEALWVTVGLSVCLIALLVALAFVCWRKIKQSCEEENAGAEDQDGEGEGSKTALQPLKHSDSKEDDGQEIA

The first test concerns the target B7-H3 expressed on the cell membrane (MCF-7, RKO and RKO/B7H3 cell lines) (UniProt Q5ZPR3). The test can be described thus: cell ELISA on fixed MCF-7 cells. In general terms: ELISA stands for enzyme-linked immunosorbent assay.
As for B1, the EC50 (in general, the concentration that produces a half-maximal response) amounted to 0.197 nM.
In turn, B2 gave a half-maximal effective concentration (EC50) of 0.159 nM.
The same measure, in the same setting: with B3 the figure was 0.061 nM; with B4, 0.502 nM; with B5, 1.01 nM.
Consider B6, for which the EC50 was found to be 0.605 nM.
Same read-out and setting: then B7, with 1.74 nM.
Molecule B8 gave an EC50 of 0.234 nM.
On the same count and under the same terms, with B9 the figure was 0.322 nM.

For the next test the target is unchanged. As to the kind of experiment: cell ELISA on fixed RKO/B7H3 cells.
Take B1: the half-maximal effective concentration (EC50) stood at 0.065 nM.
As to B2, the 50% effective concentration (EC50) was determined as 0.06 nM.
Same read-out and setting: with B3 the figure was 0.036 nM; with B4, 0.042 nM.
The molecule B5 returned an EC50 of 0.187 nM.
On the same count and under the same terms, then B6, with 0.015 nM; and B7, with 0.091 nM.
The molecule B8 displayed a concentration giving a half-maximal response (EC50) of 0.065 nM.
Still for that read-out and setting: with B9 the figure was 0.05 nM.

In another test the target is T1, Recombinant Human B7-H3 Fc chimera …. The test can be described thus: ELISA.
B1: the concentration giving a half-maximal response (EC50) worked out at 1.1 nM.
On the same count and under the same terms, then B2, with 0.63 nM.
Regarding B3, the EC50 was determined as 0.42 nM.
The same measure, in the same setting: then B4, with 0.55 nM.
With B5, the EC50 was 1.8 nM.
Still for that read-out and setting: with B6 the figure was 0.18 nM.
On the same count and under the same terms, with B7 the figure was 1.2 nM; with B8, 1.86 nM.
On the same count and under the same terms, with B9 the figure was 1.1 nM.
